Measured values taken from article doi:10.1101/2023.03.07.531120 (bioRxiv, 2023).
Where no end group is shown, it is not given here. The star is where a group is joined. FITC = O=C1OC2(c3ccc(O)cc3Oc3cc(O)ccc32)c2ccc(NC(=S)*)cc21; Oleoyl = CCCCCCCC/C=C\CCCCCCCC(=O)*

Molecular target: T1, AP2 μ2 subunit (in the mouse AP2 core) (mouse, UniProt P84091 1-435)
T1 sequence: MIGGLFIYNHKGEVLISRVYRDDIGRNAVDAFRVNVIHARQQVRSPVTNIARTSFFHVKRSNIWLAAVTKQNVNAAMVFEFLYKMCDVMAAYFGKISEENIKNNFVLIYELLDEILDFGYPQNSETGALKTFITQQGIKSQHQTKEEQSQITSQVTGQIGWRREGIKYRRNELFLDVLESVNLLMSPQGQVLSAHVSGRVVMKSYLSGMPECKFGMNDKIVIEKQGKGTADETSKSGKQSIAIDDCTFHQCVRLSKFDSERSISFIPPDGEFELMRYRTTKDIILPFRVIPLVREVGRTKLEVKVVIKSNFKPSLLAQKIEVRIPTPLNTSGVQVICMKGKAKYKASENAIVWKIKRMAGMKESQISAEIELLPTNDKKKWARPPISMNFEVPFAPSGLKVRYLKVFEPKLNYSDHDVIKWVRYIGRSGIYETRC
Assay: cryo-EM structure

binding result: binds
B1: Lipidated YxxΦ-cargo peptide of Tgn38 (Oleic acid-S{Lys(FITC)}KVTRRPKASDYQRL) (peptide)
peptide: Oleoyl-SK(FITC)KVTRRPKASDYQRL
